Data taken from the supplement of paper PMC7125110.
± gives the standard error. This sample holds only a part of the variants without activity.

B1: glmS ribozyme (parent)
chain: AUAAAAGCGCCAGAACUACAGAAAUGUAGUUGACGAGGAGGAGGUUUAUCGAAUUUUCGGCGGAUGCCUCCAAA

What was measured:
Details in all cases: with glucosamine-6-phosphate
glucosamine-6-phosphate [1] = variants of: B1; assay: self-cleavage kobs at 40 uM GlcN6P; higher = faster cleavage; RNA array
In short: (§1)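 Tiles of sequenced MiSeq chips were imaged over ~14 h at 37 °C. On them, barcoded ribozyme variants had been transcribed in situ by E. coli RNA polymerase and were tracked via a hybridised Cy3 probe while glucosamine-6-phosphate (40 μM to 10 mM) in HEPES/KCl/Mg(OAc)2 buffer flowed in. Per-tile medians, normalised to baseline and to non-cleaving reference variants, were fit to one- or two-exponential decays for kobs, and weighted Michaelis–Menten fits gave kcat and KM.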

glucosamine-6-phosphate [2] = variants of: B1; assay: self-cleavage kobs at 160 uM GlcN6P; higher = faster cleavage; RNA array
In short: as §1

glucosamine-6-phosphate [3] = variants of: B1; assay: self-cleavage kobs at 640 uM GlcN6P; higher = faster cleavage; RNA array
In short: as §1

glucosamine-6-phosphate [4] = variants of: B1; assay: self-cleavage kobs at 2500 uM GlcN6P; higher = faster cleavage; RNA array
In short: as §1

glucosamine-6-phosphate [5] = variants of: B1; assay: self-cleavage kobs at 10000 uM GlcN6P; higher = faster cleavage; RNA array
In short: as §1

| Variant | self-cleavage kobs at 40 uM GlcN6P (glucosamine-6-phosphate [1]) [s⁻¹] | self-cleavage kobs at 160 uM GlcN6P (glucosamine-6-phosphate [2]) [s⁻¹] | self-cleavage kobs at 640 uM GlcN6P (glucosamine-6-phosphate [3]) [s⁻¹] | self-cleavage kobs at 2500 uM GlcN6P (glucosamine-6-phosphate [4]) [s⁻¹] | self-cleavage kobs at 10000 uM GlcN6P (glucosamine-6-phosphate [5]) [s⁻¹] |
| --- | --- | --- | --- | --- | --- |
| G9C G13U | < 1e-05 | < 1e-05 | < 1e-05 | < 1e-05 | < 1e-05 |
| G13C A36C C71G | < 1e-05 | – | < 1e-05 | – | – |
| C8G A39G G59C | < 1e-05 | – | – | – | < 1e-05 |
| G41C C61U | < 1e-05 | < 1e-05 | < 1e-05 | < 1e-05 | < 1e-05 |
| A6U A48G | < 1e-05 | < 1e-05 | – | < 1e-05 | < 1e-05 |
| G13U G60U C68U | < 1e-05 | – | – | – | – |
| C34G A42U | < 1e-05 | < 1e-05 | < 1e-05 | < 1e-05 | < 1e-05 |
| A14G G35U G37U G44U C71U | < 1e-05 | – | – | < 1e-05 | – |
| A6G G60A U65G | < 1e-05 | – | – | – | < 1e-05 |
| U55G U57G | < 1e-05 | – | 5.98e-05 ± 2.6e-05 | – | 5.12e-05 ± 1.3e-05 |
| C34U C50G A53U C68G | 8.23e-05 ± 1.6e-05 | – | 0.000541 ± 0.00016 | – | 0.000111 ± 1.6e-05 |
| G40A U57G | < 1e-05 | – | < 1e-05 | < 1e-05 | – |
| G13A G59C | < 1e-05 | < 1e-05 | – | – | < 1e-05 |
| G9U A42U | < 1e-05 | < 1e-05 | < 1e-05 | < 1e-05 | – |
| C16G A36U C50G C68G | 0.000149 ± 4.4e-05 | 0.000256 ± 4.1e-05 | 0.000979 ± 0.00021 | – | 0.000404 ± 7.1e-05 |
| C68G | 1.18e-05 ± 2.8e-06 | – | 0.000523 ± 0.00014 | 9.11e-05 ± 1.8e-06 | 0.000473 ± 9.9e-05 |
| G13C U45C | < 1e-05 | < 1e-05 | < 1e-05 | < 1e-05 | – |
| C34A A42G | < 1e-05 | < 1e-05 | < 1e-05 | < 1e-05 | – |
| G37U A53U U55A | < 1e-05 | – | – | – | – |
| G7A G60A | < 1e-05 | < 1e-05 | < 1e-05 | – | < 1e-05 |
| A52U C58U | < 1e-05 | < 1e-05 | < 1e-05 | < 1e-05 | < 1e-05 |
| C8A U30A A48G | < 1e-05 | – | – | – | < 1e-05 |
| G40A G41C G43U | < 1e-05 | – | – | – | – |

| Variant | self-cleavage kobs at 40 uM GlcN6P (glucosamine-6-phosphate [1]) [s⁻¹] | self-cleavage kobs at 160 uM GlcN6P (glucosamine-6-phosphate [2]) [s⁻¹] | self-cleavage kobs at 640 uM GlcN6P (glucosamine-6-phosphate [3]) [s⁻¹] | self-cleavage kobs at 2500 uM GlcN6P (glucosamine-6-phosphate [4]) [s⁻¹] | self-cleavage kobs at 10000 uM GlcN6P (glucosamine-6-phosphate [5]) [s⁻¹] |
| --- | --- | --- | --- | --- | --- |
| C8U U57G | < 1e-05 | – | – | < 1e-05 | – |
| C8A G29U U57A G62C C67U | < 1e-05 | – | – | – | – |
| G32A G43C | < 1e-05 | < 1e-05 | – | < 1e-05 | – |
| C10U U57A | < 1e-05 | – | – | – | < 1e-05 |
| A36C G37A | < 1e-05 | – | – | – | < 1e-05 |
| C8U G13U | < 1e-05 | – | < 1e-05 | < 1e-05 | < 1e-05 |
| G32C A39G | < 1e-05 | < 1e-05 | – | 3.52e-05 ± 1.2e-05 | 0.000101 ± 1.4e-05 |
| A12G A36G G38C | < 1e-05 | – | – | – | – |
| G32U G41C | < 1e-05 | < 1e-05 | – | – | – |
| C10U A64G C68A | < 1e-05 | – | – | – | – |
| A6C G9U U47G | < 1e-05 | – | – | < 1e-05 | < 1e-05 |
| G35C G41U G51C | < 1e-05 | – | – | < 1e-05 | – |
| G32U G41A G66C C68G | < 1e-05 | < 1e-05 | – | < 1e-05 | < 1e-05 |
| A15G U31G U69C | 4.45e-05 ± 1.7e-05 | – | – | – | – |
| C8A G38C | < 1e-05 | < 1e-05 | < 1e-05 | – | < 1e-05 |
| G41U C50A U57A | < 1e-05 | – | – | – | < 1e-05 |
| A14U U55G C58U G66U C67G | 0.00272 ± 0.001 | – | – | – | – |
| U55A G60C | < 1e-05 | – | < 1e-05 | – | – |
| A48U A52U C67A | < 1e-05 | – | – | – | < 1e-05 |
| G7C G59C | < 1e-05 | < 1e-05 | < 1e-05 | < 1e-05 | < 1e-05 |
| A36C G41C U69A | < 1e-05 | – | – | – | – |
| A48C A64G | < 1e-05 | < 1e-05 | – | – | 6.31e-05 ± 1.3e-05 |
| A6G U56C | < 1e-05 | < 1e-05 | < 1e-05 | – | < 1e-05 |
